Measurements from publication PMC9482650, “Quantitative fragmentomics allow affinity mapping of interactomes” (Nature Communications, 2022).
Values belong to the binder of their own block, whether it stands above or below them.

Columns and labels:
Experiment in all cases: holdup assay
Design in all cases: key: below the threshold = too weak to quantify, mostly under pKd 3.1 to 4
LIN7C, Q9NUP9 = biological target: T1, LIN7C, Q9NUP9
T1 sequence (Q9NUP9 88-185, limits assumed, looked up): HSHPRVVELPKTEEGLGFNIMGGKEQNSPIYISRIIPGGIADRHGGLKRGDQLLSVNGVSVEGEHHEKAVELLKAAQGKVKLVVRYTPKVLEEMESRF

NHERF2_2, Q15599 = biological target: NHERF2_2, Q15599
Chain of NHERF2_2, Q15599 (Q15599 142-238): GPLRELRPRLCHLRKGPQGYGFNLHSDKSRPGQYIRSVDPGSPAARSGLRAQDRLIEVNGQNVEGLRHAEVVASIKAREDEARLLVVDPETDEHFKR

IL16_3, Q14005 = biological target: IL16_3, Q14005
Chain of IL16_3, Q14005 (Q14005 1107-1207): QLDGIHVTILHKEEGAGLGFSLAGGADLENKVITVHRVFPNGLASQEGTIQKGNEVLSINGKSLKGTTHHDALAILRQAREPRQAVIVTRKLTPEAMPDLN

SIPA1L2, Q9P2F8 = biological target: T2, SIPA1L2, Q9P2F8
T2 sequence (Q9P2F8 945-1036, limits assumed, looked up): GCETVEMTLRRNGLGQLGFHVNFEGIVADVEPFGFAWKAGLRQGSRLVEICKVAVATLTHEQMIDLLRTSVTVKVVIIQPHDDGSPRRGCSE

PDLIM1, O00151 = biological target: PDLIM1, O00151
Chain of PDLIM1, O00151 (O00151 1-87): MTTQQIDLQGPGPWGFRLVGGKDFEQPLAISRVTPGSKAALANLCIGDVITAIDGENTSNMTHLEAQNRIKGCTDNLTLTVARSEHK

NHERF3_1, Q5T2W1 = biological target: T3, NHERF3_1, Q5T2W1
T3 sequence (Q5T2W1 4-100, limits assumed, looked up): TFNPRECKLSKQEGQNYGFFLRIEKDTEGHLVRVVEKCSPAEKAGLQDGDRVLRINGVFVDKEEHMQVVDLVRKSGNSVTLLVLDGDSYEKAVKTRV

GRIP2_5, Q9C0E4 = biological target: GRIP2_5, Q9C0E4
Chain of GRIP2_5, Q9C0E4 (Q9C0E4 544-642): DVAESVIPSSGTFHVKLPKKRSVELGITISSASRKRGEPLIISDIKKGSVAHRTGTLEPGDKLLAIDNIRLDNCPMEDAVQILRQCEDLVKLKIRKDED

Inadl_8, Q8NI35 = biological target: Inadl_8, Q8NI35
Chain of Inadl_8, Q8NI35 (Q8NI35 1425-1530): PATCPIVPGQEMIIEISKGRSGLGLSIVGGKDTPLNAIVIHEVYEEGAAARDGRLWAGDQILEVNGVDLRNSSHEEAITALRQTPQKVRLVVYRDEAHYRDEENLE

MPDZ_5, O75970 = biological target: T4, MPDZ_5, O75970
T4 sequence (O75970 695-796, limits assumed, looked up): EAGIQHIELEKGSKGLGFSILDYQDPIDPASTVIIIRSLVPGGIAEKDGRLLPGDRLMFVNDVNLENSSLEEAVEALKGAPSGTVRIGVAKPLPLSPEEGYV

Inadl_2, Q8NI35 = biological target: Inadl_2, Q8NI35
Chain of Inadl_2, Q8NI35 (Q8NI35 238-335): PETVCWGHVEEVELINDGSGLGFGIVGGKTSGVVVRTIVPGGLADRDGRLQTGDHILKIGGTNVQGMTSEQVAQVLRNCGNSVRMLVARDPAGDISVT

MAGI3_2, Q5TCQ9 = biological target: MAGI3_2, Q5TCQ9
Chain of MAGI3_2, Q5TCQ9 (Q5TCQ9 398-503): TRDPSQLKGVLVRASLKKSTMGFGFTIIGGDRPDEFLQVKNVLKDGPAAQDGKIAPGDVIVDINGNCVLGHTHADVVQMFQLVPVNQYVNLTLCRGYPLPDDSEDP

TIAM2, Q8IVF5 = biological target: T5, TIAM2, Q8IVF5
T5 sequence (Q8IVF5 885-986, limits assumed, looked up): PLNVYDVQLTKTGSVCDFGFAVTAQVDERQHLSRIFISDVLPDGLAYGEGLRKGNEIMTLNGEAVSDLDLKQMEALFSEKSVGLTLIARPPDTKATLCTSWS

SCRIB_2, Q14160 = biological target: SCRIB_2, Q14160
Chain of SCRIB_2, Q14160 (Q14160 857-960): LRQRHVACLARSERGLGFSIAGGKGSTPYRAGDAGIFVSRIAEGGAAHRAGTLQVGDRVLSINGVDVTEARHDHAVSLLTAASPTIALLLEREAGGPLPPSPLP

LAP2, Q96RT1 = biological target: LAP2, Q96RT1
Chain of LAP2, Q96RT1 (Q96RT1 other isoform, or with tags, fused parts or gaps): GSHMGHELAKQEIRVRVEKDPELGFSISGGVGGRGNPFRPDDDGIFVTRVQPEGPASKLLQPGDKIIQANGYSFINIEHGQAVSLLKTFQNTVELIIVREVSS

GRIP1_4, Q9Y3R0 = biological target: T6, GRIP1_4, Q9Y3R0
T6 sequence (Q9Y3R0 467-571, limits assumed, looked up): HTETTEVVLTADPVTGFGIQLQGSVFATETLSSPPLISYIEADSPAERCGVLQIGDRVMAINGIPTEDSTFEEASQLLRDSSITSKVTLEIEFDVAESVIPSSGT

APBA3_1, O96018 = biological target: T7, APBA3_1, O96018
T7 sequence (O96018 389-490, limits assumed, looked up): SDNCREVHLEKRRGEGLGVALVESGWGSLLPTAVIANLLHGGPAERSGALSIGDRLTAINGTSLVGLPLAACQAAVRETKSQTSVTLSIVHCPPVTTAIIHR

MAGI1_1, Q96QZ7 = biological target: MAGI1_1, Q96QZ7
Chain of MAGI1_1, Q96QZ7 (Q96QZ7 1-106): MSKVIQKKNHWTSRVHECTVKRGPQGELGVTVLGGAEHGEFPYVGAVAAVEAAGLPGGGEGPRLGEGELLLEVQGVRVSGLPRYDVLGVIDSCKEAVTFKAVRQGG

Inadl_1, Q8NI35 = biological target: Inadl_1, Q8NI35
Chain of Inadl_1, Q8NI35 (Q8NI35 113-229): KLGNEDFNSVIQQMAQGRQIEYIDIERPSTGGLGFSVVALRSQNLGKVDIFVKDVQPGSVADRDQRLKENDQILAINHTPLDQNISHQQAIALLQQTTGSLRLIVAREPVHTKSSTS

GRIP1_3, Q9Y3R0 = biological target: T8, GRIP1_3, Q9Y3R0
T8 sequence (Q9Y3R0 247-346, limits assumed, looked up): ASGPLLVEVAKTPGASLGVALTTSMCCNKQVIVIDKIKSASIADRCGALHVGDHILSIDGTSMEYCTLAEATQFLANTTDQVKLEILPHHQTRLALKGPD

GRIP1_5, Q9Y3R0 = biological target: T9, GRIP1_5, Q9Y3R0
T9 sequence (Q9Y3R0 568-668, limits assumed, looked up): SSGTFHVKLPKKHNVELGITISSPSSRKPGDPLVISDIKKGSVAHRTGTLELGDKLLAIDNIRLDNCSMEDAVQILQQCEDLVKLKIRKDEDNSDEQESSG

GRIP2_4, Q9C0E4 = biological target: GRIP2_4, Q9C0E4
Chain of GRIP2_4, Q9C0E4 (Q9C0E4 446-548): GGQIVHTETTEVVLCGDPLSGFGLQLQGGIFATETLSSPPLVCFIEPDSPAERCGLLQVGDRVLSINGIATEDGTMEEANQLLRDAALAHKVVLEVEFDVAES

MPDZ_12, O75970 = biological target: T10, MPDZ_12, O75970
T10 sequence (O75970 1857-1958, limits assumed, looked up): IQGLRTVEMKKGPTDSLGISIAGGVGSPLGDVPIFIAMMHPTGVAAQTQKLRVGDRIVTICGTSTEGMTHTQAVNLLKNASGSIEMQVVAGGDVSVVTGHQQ

DLG2_3, Q15700 = biological target: DLG2_3, Q15700
DVL3, Q92997 = biological target: T11, DVL3, Q92997
T11 sequence (Q92997 244-331, limits assumed, looked up): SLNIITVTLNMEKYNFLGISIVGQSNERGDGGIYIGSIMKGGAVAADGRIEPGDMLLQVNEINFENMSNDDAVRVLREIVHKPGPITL

DLG2_2, Q15700 = biological target: DLG2_2, Q15700
DLG4_1, P78352 = biological target: DLG4_1, P78352
Chain of DLG4_1, P78352 (P78352 62-152): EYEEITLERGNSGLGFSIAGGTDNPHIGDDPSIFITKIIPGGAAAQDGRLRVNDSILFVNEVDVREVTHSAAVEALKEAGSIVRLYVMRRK

[1] = plain residues with an end cap or a label only (N-terminal biotin on a linker: ahx)
[2] = plain residues with an end cap or a label only (N-terminal biotin on a linker: ado-ado)
[3] = plain residues with an end cap or a label only (N-terminal biotin on a linker: ttds)

Binder: EKPIDSETKM [SLC1A3, P43003]
pKd (LIN7C, Q9NUP9; [2]): below the threshold
pKd (NHERF2_2, Q15599; [2]): 4.47
pKd (IL16_3, Q14005; [2]): below the threshold
pKd (SIPA1L2, Q9P2F8; [2]): below the threshold
pKd (PDLIM1, O00151; [2]): below the threshold
pKd (NHERF3_1, Q5T2W1; [2]): 5.23
pKd (GRIP2_5, Q9C0E4; [2]): below the threshold
pKd (Inadl_8, Q8NI35; [2]): below the threshold
pKd (MPDZ_5, O75970; [2]): below the threshold
pKd (Inadl_2, Q8NI35; [2]): below the threshold
pKd (MAGI3_2, Q5TCQ9; [2]): below the threshold
pKd (TIAM2, Q8IVF5; [2]): below the threshold
pKd (SCRIB_2, Q14160; [2]): below the threshold
pKd (LAP2, Q96RT1; [2]): below the threshold
pKd (GRIP1_4, Q9Y3R0; [2]): below the threshold
pKd (APBA3_1, O96018; [2]): below the threshold
pKd (MAGI1_1, Q96QZ7; [2]): below the threshold
pKd (Inadl_1, Q8NI35; [2]): below the threshold
pKd (GRIP1_3, Q9Y3R0; [2]): below the threshold
pKd (GRIP1_5, Q9Y3R0; [2]): below the threshold
pKd (GRIP2_4, Q9C0E4; [2]): below the threshold
pKd (MPDZ_12, O75970; [2]): below the threshold
pKd (DLG2_3, Q15700; [2]): below the threshold
pKd (DVL3, Q92997; [2]): below the threshold
pKd (DLG2_2, Q15700; [2]): below the threshold
pKd (DLG4_1, P78352; [2]): 3.49

Binder: PSRDRKETSI [RALBP1, Q15311]
pKd (LIN7C, Q9NUP9; [3]): 3.9
pKd (NHERF2_2, Q15599; [3]): below the threshold
pKd (IL16_3, Q14005; [3]): below the threshold
pKd (SIPA1L2, Q9P2F8; [3]): below the threshold
pKd (PDLIM1, O00151; [3]): below the threshold
pKd (NHERF3_1, Q5T2W1; [3]): 3.68
pKd (GRIP2_5, Q9C0E4; [3]): below the threshold
pKd (Inadl_8, Q8NI35; [3]): below the threshold
pKd (MPDZ_5, O75970; [3]): below the threshold
pKd (Inadl_2, Q8NI35; [3]): below the threshold
pKd (MAGI3_2, Q5TCQ9; [3]): 4.76
pKd (TIAM2, Q8IVF5; [3]): below the threshold
pKd (SCRIB_2, Q14160; [3]): 3.75
pKd (LAP2, Q96RT1; [3]): 3.37
pKd (GRIP1_4, Q9Y3R0; [3]): below the threshold
pKd (APBA3_1, O96018; [3]): below the threshold
pKd (MAGI1_1, Q96QZ7; [3]): below the threshold
pKd (Inadl_1, Q8NI35; [3]): below the threshold
pKd (GRIP1_3, Q9Y3R0; [3]): below the threshold
pKd (GRIP1_5, Q9Y3R0; [3]): below the threshold
pKd (GRIP2_4, Q9C0E4; [3]): below the threshold
pKd (MPDZ_12, O75970; [3]): below the threshold
pKd (DLG2_3, Q15700; [3]): 4.64
pKd (DVL3, Q92997; [3]): below the threshold
pKd (DLG2_2, Q15700; [3]): 4.29
pKd (DLG4_1, P78352; [3]): 3.97

Second part, the binder after the results:

pKd (LIN7C, Q9NUP9; [1]): below the threshold
pKd (NHERF2_2, Q15599; [1]): 5.32
pKd (IL16_3, Q14005; [1]): below the threshold
pKd (SIPA1L2, Q9P2F8; [1]): below the threshold
pKd (PDLIM1, O00151; [1]): below the threshold
pKd (NHERF3_1, Q5T2W1; [1]): 4.27
pKd (GRIP2_5, Q9C0E4; [1]): below the threshold
pKd (Inadl_8, Q8NI35; [1]): below the threshold
pKd (MPDZ_5, O75970; [1]): below the threshold
pKd (Inadl_2, Q8NI35; [1]): 4.09
pKd (MAGI3_2, Q5TCQ9; [1]): below the threshold
pKd (TIAM2, Q8IVF5; [1]): below the threshold
pKd (SCRIB_2, Q14160; [1]): below the threshold
pKd (LAP2, Q96RT1; [1]): below the threshold
pKd (GRIP1_4, Q9Y3R0; [1]): below the threshold
pKd (APBA3_1, O96018; [1]): below the threshold
pKd (MAGI1_1, Q96QZ7; [1]): below the threshold
pKd (Inadl_1, Q8NI35; [1]): below the threshold
pKd (GRIP1_3, Q9Y3R0; [1]): below the threshold
pKd (GRIP1_5, Q9Y3R0; [1]): below the threshold
pKd (GRIP2_4, Q9C0E4; [1]): below the threshold
pKd (MPDZ_12, O75970; [1]): below the threshold
pKd (DLG2_3, Q15700; [1]): below the threshold
pKd (DVL3, Q92997; [1]): 3.62
pKd (DLG2_2, Q15700; [1]): below the threshold
pKd (DLG4_1, P78352; [1]): below the threshold
Binder: KEYDDELTFF [USH1C, Q9Y6N9]

pKd (LIN7C, Q9NUP9; [1]): below the threshold
pKd (NHERF2_2, Q15599; [1]): below the threshold
pKd (IL16_3, Q14005; [1]): below the threshold
pKd (SIPA1L2, Q9P2F8; [1]): below the threshold
pKd (PDLIM1, O00151; [1]): below the threshold
pKd (NHERF3_1, Q5T2W1; [1]): 4.91
pKd (GRIP2_5, Q9C0E4; [1]): below the threshold
pKd (Inadl_8, Q8NI35; [1]): below the threshold
pKd (MPDZ_5, O75970; [1]): 4.22
pKd (Inadl_2, Q8NI35; [1]): 5.4
pKd (MAGI3_2, Q5TCQ9; [1]): below the threshold
pKd (TIAM2, Q8IVF5; [1]): 4.62
pKd (SCRIB_2, Q14160; [1]): below the threshold
pKd (LAP2, Q96RT1; [1]): below the threshold
pKd (GRIP1_4, Q9Y3R0; [1]): below the threshold
pKd (APBA3_1, O96018; [1]): below the threshold
pKd (MAGI1_1, Q96QZ7; [1]): below the threshold
pKd (Inadl_1, Q8NI35; [1]): 3.72
pKd (GRIP1_3, Q9Y3R0; [1]): below the threshold
pKd (GRIP1_5, Q9Y3R0; [1]): below the threshold
pKd (GRIP2_4, Q9C0E4; [1]): below the threshold
pKd (MPDZ_12, O75970; [1]): below the threshold
pKd (DLG2_3, Q15700; [1]): below the threshold
pKd (DVL3, Q92997; [1]): 4.9
pKd (DLG2_2, Q15700; [1]): below the threshold
pKd (DLG4_1, P78352; [1]): below the threshold
Binder: VNENQKEYFF [CNTNAP4, Q9C0A0]

pKd (LIN7C, Q9NUP9; [2]): below the threshold
pKd (NHERF2_2, Q15599; [2]): below the threshold
pKd (IL16_3, Q14005; [2]): below the threshold
pKd (SIPA1L2, Q9P2F8; [2]): below the threshold
pKd (PDLIM1, O00151; [2]): below the threshold
pKd (NHERF3_1, Q5T2W1; [2]): below the threshold
pKd (GRIP2_5, Q9C0E4; [2]): below the threshold
pKd (Inadl_8, Q8NI35; [2]): below the threshold
pKd (MPDZ_5, O75970; [2]): below the threshold
pKd (Inadl_2, Q8NI35; [2]): below the threshold
pKd (MAGI3_2, Q5TCQ9; [2]): below the threshold
pKd (TIAM2, Q8IVF5; [2]): 3.8
pKd (SCRIB_2, Q14160; [2]): below the threshold
pKd (LAP2, Q96RT1; [2]): below the threshold
pKd (GRIP1_4, Q9Y3R0; [2]): below the threshold
pKd (APBA3_1, O96018; [2]): below the threshold
pKd (MAGI1_1, Q96QZ7; [2]): below the threshold
pKd (Inadl_1, Q8NI35; [2]): below the threshold
pKd (GRIP1_3, Q9Y3R0; [2]): below the threshold
pKd (GRIP1_5, Q9Y3R0; [2]): below the threshold
pKd (GRIP2_4, Q9C0E4; [2]): below the threshold
pKd (MPDZ_12, O75970; [2]): below the threshold
pKd (DLG2_3, Q15700; [2]): 3.62
pKd (DVL3, Q92997; [2]): below the threshold
pKd (DLG2_2, Q15700; [2]): below the threshold
pKd (DLG4_1, P78352; [2]): below the threshold
Binder: DAAHHDESNC [FMNL3, Q8IVF7]
